# In article PMC12259267 (2025):
# T1: recombinant GFP–N-Myc (UniProt P04198 1-464)
# T1 chain: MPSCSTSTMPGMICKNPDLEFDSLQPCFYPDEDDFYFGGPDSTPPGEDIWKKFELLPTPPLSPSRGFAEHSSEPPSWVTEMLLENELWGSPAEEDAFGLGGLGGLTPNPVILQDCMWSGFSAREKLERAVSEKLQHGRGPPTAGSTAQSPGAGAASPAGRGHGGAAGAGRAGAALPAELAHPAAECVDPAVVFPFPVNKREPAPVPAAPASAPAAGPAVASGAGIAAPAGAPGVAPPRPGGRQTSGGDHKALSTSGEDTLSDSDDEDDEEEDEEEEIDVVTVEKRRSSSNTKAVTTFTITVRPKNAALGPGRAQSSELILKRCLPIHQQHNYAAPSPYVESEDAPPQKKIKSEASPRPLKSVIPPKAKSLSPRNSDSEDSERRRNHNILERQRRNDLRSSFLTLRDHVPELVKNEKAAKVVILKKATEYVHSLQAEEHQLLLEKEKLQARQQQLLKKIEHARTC
# Legend:
# [1] = target: recombinant GFP–C-Myc (UniProt P01106 1-454); test: MST
# [2] = target: T1, recombinant GFP–N-Myc; test: MST
# recombinant GFP–C-Myc, sequence (P01106 whole entry): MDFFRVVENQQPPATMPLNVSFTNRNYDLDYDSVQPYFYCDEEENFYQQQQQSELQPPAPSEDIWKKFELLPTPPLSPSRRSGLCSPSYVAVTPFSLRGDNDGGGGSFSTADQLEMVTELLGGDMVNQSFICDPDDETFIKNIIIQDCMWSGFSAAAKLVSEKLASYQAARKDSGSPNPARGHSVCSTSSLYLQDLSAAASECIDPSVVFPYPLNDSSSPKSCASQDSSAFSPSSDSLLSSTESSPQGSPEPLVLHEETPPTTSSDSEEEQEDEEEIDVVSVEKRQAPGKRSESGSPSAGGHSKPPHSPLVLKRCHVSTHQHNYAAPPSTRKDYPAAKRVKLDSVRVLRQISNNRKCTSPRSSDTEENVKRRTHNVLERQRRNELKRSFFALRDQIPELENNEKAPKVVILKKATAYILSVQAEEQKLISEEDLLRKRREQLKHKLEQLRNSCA
binder,measurement,setting,value
KLHL37-His recombinant protein (natural protein) MSVSVHENRKSRASSGSINIYLFHKSSYADSVLTHLNLLRQQRLFTDVLLHAGNRTFPCHRAVLAACSRYFEAMFSGGLKESQDSEVNFDNSIHPEVLELLLDYAYSSRVIINEENAESLLEAGDMLEFQDIRDACAEFLEKNLHPTNCLGMLLLSDAHQCTKLYELSWRMCLSNFQTIRKNEDFLQLPQDMVVQLLSSEELETEDERLVYESAINWISYDLKKRYCYLPELLQTVRLALLPAIYLMENVAMEELITKQRKSKEIVEEAIRCKLKILQNDGVVTSLCARPRKTGHALFLLGGQTFMCDKLYLVDQKAKEIIPKADIPSPRKEFSACAIGCKVYITGGRGSENGVSKDVWVYDTLHEEWSKAAPMLVARFGHGSAELKHCLYVVGGHTAATGCLPASPSVSLKQVEHYDPTINKWTMVAPLREGVSNAAVVSAKLKLFAFGGTSVSHDKLPKVQCYDQCENRWTVPATCPQPWRYTAAAVLGNQIFIMGGDTEFSACSAYKFNSETYQWTKVGDVTAKRMSCHAVASGNKLYVVGGYFGIQRCKTLDCYDPTLDVWNSITTVPYSLIPTAFVSTWKHLPS,EC50,[1],2.54 nM
same,EC50,[2],0.0983 nM
